Earlier results as cited in paper PMC11401910, “Dual client binding sites in the ATP-independent chaperone SurA” (Nature Communications, 2024).

Target: OmpX (Escherichia coli) (UniProt P0A917)
Conditions: cited from earlier work

Sequence of SurA (P0ABZ6 21-428): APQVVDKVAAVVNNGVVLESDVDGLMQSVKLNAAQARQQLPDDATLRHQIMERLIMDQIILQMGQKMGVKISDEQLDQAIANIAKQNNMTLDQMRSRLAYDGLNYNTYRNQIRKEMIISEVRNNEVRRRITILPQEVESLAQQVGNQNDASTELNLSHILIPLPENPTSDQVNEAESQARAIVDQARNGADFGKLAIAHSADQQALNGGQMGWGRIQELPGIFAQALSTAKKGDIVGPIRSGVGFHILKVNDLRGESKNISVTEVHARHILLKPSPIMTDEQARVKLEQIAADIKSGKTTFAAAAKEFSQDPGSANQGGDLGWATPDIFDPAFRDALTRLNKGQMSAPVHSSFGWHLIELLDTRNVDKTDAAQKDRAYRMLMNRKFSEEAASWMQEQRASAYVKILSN
Sequence of OmpX (Escherichia coli) (P0A917 24-171): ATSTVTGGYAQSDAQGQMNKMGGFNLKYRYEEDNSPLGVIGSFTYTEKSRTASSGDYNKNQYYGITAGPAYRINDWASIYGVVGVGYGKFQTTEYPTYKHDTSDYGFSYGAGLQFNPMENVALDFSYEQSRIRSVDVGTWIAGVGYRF

For SurA (from UniProt P0ABZ6), the Kd is listed as 1000 nM.
